{"source": "patent US20190292256A1", "about": "“Compounds and Methods to Measure Metabolic Function and Restore Normal Metabolic Function” (priority 2010, published 2019)", "molecules": {"B1": {"name": "Wnt5a: recombinant mouse Wnt5a protein produced in CHO cells, purchased from R&D Systems (protein)", "chain": "IIGAQPLCSQLAGLSQGQKKLCHLYQDHMQYIGEGAKTGIKECQYQFRHRRWNCSTVDNTSVFGRVMQIGSRETAFTYAVSAAGVVNAMSRACREGELSTCGCSRAARPKDLPRDWLWGGCGDNIDYGYRFAKEFVDARERERIHAKGSYESARILMNLHNNEAGRRTVYNLADVACKCHGVSGSCSLKTCWLQLADFRKVGDALKEKYDSAAAMRLNSRGKLVQVNSRFNSPTTQDLVYIDPSPDYCVRNESTGSLGTQGRLCNKTSEGMDGCELMCCGRGYDQFKTVQTERCHCKFHWCCYVKCKKCTEIVDQFVCK"}, "B2": {"name": "Sfrp5: secreted frizzled-related protein 5, here overexpressed in adipocytes by AdTRE-Sfrp5 transduction (protein, UniProt Q9WU66 22-314, looked up)", "Secreted frizzled-related …": "APTRGQEYDYYGWQAEPLHGRSYSKPPQCLDIPADLPLCHTVGYKRMRLPNLLEHESLAEVKQQASSWLPLLAKRCHSDTQVFLCSLFAPVCLDRPIYPCRSLCEAARAGCAPLMEAYGFPWPEMLHCHKFPLDNDLCIAVQFGHLPATAPPVTKICAQCEMEHSADGLMEQMCSSDFVVKMRIKEIKIDNGDRKLIGAQKKKKLLKAGPLKRKDTKKLVLHMKNGASCPCPQLDNLTGSFLVMGRKVEGQLLLTAVYRWDKKNKEMKFAVKFMFSYPCSLYYPFFYGAAEPH"}}, "assay_type_in_all_cases": "cell-based, mouse", "key": {"3T3-L1 adipocytes": {"system": "3T3-L1 adipocytes", "assay": "Sfrp5 and adiponectin transcript expression in 3T3-L1 adipocytes treated with stress agents (QRT-PCR)", "conditions": "differentiated 3T3-L1 adipocytes, 24 h; TNFα 10 ng/ml, H2O2 0.2 mM, tunicamycin 5 μg/ml", "experimental": "(§1) Mouse 3T3-L1 cells (ATCC) were maintained in DMEM with 10% fetal bovine serum (FBS) and differentiated into adipocytes by treatment with DMEM supplemented with 5 μg/ml of insulin, 0.5 mM 1-methyl-3-isobutyl-xanthin, and 1 μM dexamethazone. At day 7 after differentiation, 3T3-L1 adipocytes were treated with tunicamycin, H2O2, TNFα or vehicle for 24 h. Peritoneal macrophages from lean WT C57BL/6 mice were maintained in DMEM supplemented 10% FBS and placed in DMEM with 0.5% FBS for 16 h for serum starvation. Macrophages were incubated in the conditioned media from 3T3-L1 adipocytes transduced with adenoviral vectors in the presence of Wnt5a protein (200 ng/ml) or vehicle for 24 h. In some experiments, cells were pretreated with SP600125 (15 μM) or vehicle for 1 h followed by treatment with Wnt5a protein.\nEpididymal fat pads from male wild-type C57BL/6 mice fed a normal diet were excised, minced in PBS and digested with 1 mg/ml collagenase Type 1 (Worthington Chemical Corporation) at 37° C. for 30 min. The digested fat tissue was filtered through a mesh and centrifuged at 1000 rpm for 5 min to separate floating adipocytes from the SV fraction. Measurement of mRNA Levels Gene expression level was quantified by real-time PCR. Total RNA was prepared with the use of a Qiagen kit. cDNA was produced using ThermoScript RT-PCR Systems (Invitrogen). PCR was performed on iCycler iQ Real-Time PCR Detection System (Bio-Rad) using SYBR Green 1 as a […] DNA specific dye (Applied Biosystems)."}, "[1]": {"system": "IL-6 expression in adipocytes", "assay": "Wnt5a-stimulated IL-6 expression in 3T3-L1 adipocytes (QRT-PCR)", "conditions": "Wnt5a 200 ng/ml 24 h", "experimental": "as §1\n(§2) Epididymal fat pads from male wild-type C57BL/6 mice fed a normal diet were excised, minced in PBS and digested with 1 mg/ml collagenase Type 1 (Worthington Chemical Corporation) at 37° C. for 30 min. The digested fat tissue was filtered through a mesh and centrifuged at 1000 rpm for 5 min to separate floating adipocytes from the SV fraction. Measurement of mRNA Levels Gene expression level was quantified by real-time PCR. Total RNA was prepared with the use of a Qiagen kit. cDNA was produced using ThermoScript RT-PCR Systems (Invitrogen). […]"}, "[2]": {"system": "TNFα and IL-6 transcript expression by macrophages", "assay": "Wnt5a-stimulated TNFα and IL-6 transcript expression in peritoneal macrophages (QRT-PCR)", "conditions": "Wnt5a 200 ng/ml, 24 h", "experimental": "as §1, §2"}, "[3]": {"system": "TOPflash reporter activity (canonical Wnt signaling)", "assay": "TOPflash luciferase reporter assay in 3T3-L1 adipocytes", "conditions": "Wnt5a 200 ng/ml 24 h, AdTRE-Sfrp5 transduction", "experimental": "3T3-L1 adipocytes were transduced with adenoviral vectors for 24 h and co-transfected with a TOPflash (Upstate) construct and a Renilla luciferase control plasmid (pRL-SV40, Promega) to normalize for transfection efficiency. After transfection, cells were treated with Wnt5a protein (200 ng/ml) or vehicle. Cells were lysed and analyzed on a luminometer by using dual luciferase assay kit (Promega)."}, "[4]": {"system": "JNK phosphorylation in macrophages", "assay": "Wnt5a-stimulated JNK phosphorylation in peritoneal macrophages (immunoblot)", "conditions": "in conditioned media from Ad-β-gal-treated 3T3-L1 adipocytes, 30 min", "experimental": "as §1, with “Macrophages were incubated in the conditioned media from 3T3-L1 adipocytes transduced with adenoviral vectors in the presence of Wnt5a protein (200 ng/ml) or vehicle for 24 h.” left out"}, "[5]": {"system": "phosphorylation of JNK in adipocytes", "assay": "Wnt5a-stimulated JNK phosphorylation in 3T3-L1 adipocytes (immunoblot)", "conditions": "Wnt5a 30 min", "experimental": "as §1"}}, "data": [{"molecule": "OO", "note": "[hydrogen peroxide]", "values": [{"measurement": "Sfrp5 transcript levels", "setting": "3T3-L1 adipocytes", "value": "significantly reduced"}, {"measurement": "transcript level of adiponectin", "setting": "3T3-L1 adipocytes", "value": "down-regulated"}]}, {"molecule": "TNFα", "values": [{"measurement": "Sfrp5 transcript levels", "setting": "3T3-L1 adipocytes", "value": "significantly reduced"}, {"measurement": "transcript level of adiponectin", "setting": "3T3-L1 adipocytes", "value": "down-regulated"}]}, {"molecule": "tunicamycin", "values": [{"measurement": "Sfrp5 transcript levels", "setting": "3T3-L1 adipocytes", "value": "significantly reduced"}, {"measurement": "transcript level of adiponectin", "setting": "3T3-L1 adipocytes", "value": "down-regulated"}]}, {"molecule": "B1", "values": [{"measurement": "IL-6 expression in adipocytes", "setting": "[1]", "value": "stimulatory effects"}, {"measurement": "IL-6 transcript expression by macrophages", "setting": "[2]", "value": "increased"}, {"measurement": "TNFα transcript expression by macrophages", "setting": "[2]", "value": "increased"}, {"measurement": "effect on TOPflash reporter activity", "setting": "[3]", "value": "neither Sfrp5 nor Wnt5a had an effect"}, {"measurement": "JNK phosphorylation in macrophages", "setting": "[4]", "value": "stimulated"}, {"measurement": "phosphorylation of JNK in adipocytes", "setting": "[5]", "value": "stimulatory effects"}]}, {"molecule": "B2", "values": [{"measurement": "effect on TOPflash reporter activity", "setting": "[3]", "value": "neither Sfrp5 nor Wnt5a had an effect"}]}]}
